From patent US20050282239A1, “Cell-permeable enzyme activation reporter that can be loaded in a high throughput and gentle manner” (priority 2003, published 2005)
Ends that are not written are not given here.

How the values were obtained:
HT1080 cells = test: CACE single-cell analysis: loading and release of cargo; format: cell-based, human
CamKII = test: CACE: intracellular phosphorylation of CamKII substrate in HT1080 cells; format: cell-based, human
Description: To determine whether the detached peptide substrates were in the cytosol and accessible to kinases, the intracellular phosphorylation of the translocated cargo was studied. In the initial experiment, F-CamKII-C-SS-TAT (SEQ ID NO:15) at 750 nM extracellular concentration was loaded into HT1080 cells. The cells were incubated with ionomycin (500 nM) for 15 min to increase the intracellular concentration of free Ca^2+ and activate the CamKII enzyme (Worrell and Frizzell 1991). […] The migration time of the second peak was identical to that of phosphorylated F-CamKII-C loaded into cells. 52+3% (mean±SEM) (n=5) of the F-CamKII-C was phosphorylated as determined by comparison of the peak areas. At least half of the F-CamKII-C was in the cytosol and accessible to the kinase. For these cells the average number of moles per cell was ˜2×10^−20 which is equivalent to a cytosolic concentration of ˜100 nM.
(§1) CACE has been previously described (Sims, Meredith et al. 1998; Meredith, Sims et al. 2000; Li, Wu et al. 2001). Briefly, cells were placed on an inverted fluorescence microscope stage (Diaphot 300, Nikon, Japan) and maintained at 37° C. with an objective heater (Bioptechs; Butler, Pa.) prior to lysis unless stated otherwise. The cells were continually washed with ECB maintained at 37° C. (unless otherwise indicated) with a flow rate of 1 ml/min and a total chamber volume of 0.5 ml. The inlet of a capillary (30 μm I.D., 360 μm O.D., 75 cm long) was positioned 10 μm above the cell. The inverted microscope was coupled to a pulsed Nd:YAG laser and a CE system (Sims, 1998). The CACE-based assay was performed as previously described (U, 2001; Meredith, 2000). Cells were always maintained in ECB when analyzed by the CACE.
(§2) CE was performed as described (Sims, Meredith et al. 1998), with the following modifications. […] The loaded volume was calculated from Poiseulle's equation and from contributions by spontaneous fluid displacement and diffusion (Weinberger, 2000; Fishman, 1994; Crank, 1989). […] Analytes were detected by laser-induced fluorescence (Sims, Meredith et al. 1998). […]

PKB [1] = molecular target: T1, PKB (Homo sapiens, UniProt P31749); test: CACE: intracellular phosphorylation of PKB substrate in HT1080 cells; format: cell-based
T1 construct: endogenous in cells; host or cells: HT1080 cells; HT1080/PTEN cells (engineered to over-express wild type PTEN, PKB itself not transfected)
T1 sequence (P31749 whole entry): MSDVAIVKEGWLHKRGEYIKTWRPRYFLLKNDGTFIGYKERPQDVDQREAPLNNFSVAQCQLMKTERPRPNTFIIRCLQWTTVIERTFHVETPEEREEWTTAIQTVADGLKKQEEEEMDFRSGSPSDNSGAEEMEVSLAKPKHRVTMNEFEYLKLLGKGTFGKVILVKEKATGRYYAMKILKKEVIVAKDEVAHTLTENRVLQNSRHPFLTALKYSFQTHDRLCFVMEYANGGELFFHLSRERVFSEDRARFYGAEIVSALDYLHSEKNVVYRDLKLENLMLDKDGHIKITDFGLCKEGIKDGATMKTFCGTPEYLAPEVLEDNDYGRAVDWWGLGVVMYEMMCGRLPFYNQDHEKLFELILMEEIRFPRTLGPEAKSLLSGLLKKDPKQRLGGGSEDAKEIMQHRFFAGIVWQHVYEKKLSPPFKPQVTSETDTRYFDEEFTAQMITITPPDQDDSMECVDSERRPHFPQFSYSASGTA
Source text: Since the properties of F-PKB (SEQ ID NO:17) microinjected into HT1080 cells have been well characterized, experiments were undertaken to compare the fate of F-PKB-C loaded as F-PKB-C-SS-TAT (SEQ ID NO:16) into HT1080 cells to that of the microinjected F-PKB (SEQ ID NO:17). When microinjected, the percentage of phosphorylated F-PKB depended on the relative, steady-state levels of both the kinases and phosphatases. This observation is shown in electrophoretic traces from cells loaded with F-PKB-C-SS-TAT (1 μM) (FIG. 6). A single asterisk denotes the migration time of F-PKB, and a double asterisk denotes the migration time of phosphorylated F-PKB from cells on the day of the experiment.
as §1
CE was performed as described (Sims, Meredith et al. 1998), with the following modifications. The inner walls of the capillaries (30 μm I.D., 360 μm O.D.) were coated with poly(acrylate) (Wang, Hu et al. 2003). The outlet of the capillary was held at a negative potential of 18-21 kV, and the inlet reservoir was held at ground potential. Under these conditions, the current through the capillary was typically ˜36 μA. Solutions of standards were loaded into the capillary by gravitational fluid flow. The loaded volume was calculated from Poiseulle's equation and from contributions by spontaneous fluid displacement and diffusion (Weinberger, 2000; Fishman, 1994; Crank, 1989). To estimate the number of moles of peptide in an unknown solution or within a cell, the peak area from the electrophoretic trace of the solution or the cell was compared to that of a standard of known concentration separated by electrophoresis on the same day. A 1 pL cell volume and 100% peptide recovery was assumed in calculating intracellular peptide concentration (Meredith, Sims et al. 2000; Sims, Meredith et al. 1998). Analytes were detected by laser-induced fluorescence (Sims, Meredith et al. 1998).
Cells were incubated at room temperature for 5 minutes in 1% bovine serum albumin (BSA) in ECB, washed in ECB, and then incubated for 5 minutes at room temperature with a substrate conjugated to TAT(49-57). The cells were then washed with 1% BSA in ECB. Cells loaded with the disulfide conjugate were placed in supplement DMEM (10% FCS, 4 mM L-glutamine, 100 U/mL penicillin and 100 μg/mL streptomycin) and incubated at 37° C. in 5% CO2 for 20 minutes. Cells loaded with the photolabile conjugate were placed in supplemented DMEM and incubated at 37° C. in 5% CO2 for 10 minutes (unless stated otherwise) and were then illuminated with a UV light source for 10 seconds (a radiant energy/unit area of 2 kJ/m^2). The supplemented DMEM was exchanged and the cells were incubated another 10 minutes at 37° C. in 5% CO2. Just prior to analysis the cells were washed into ECB.

PKB [2] = molecular target: T1, PKB; test: CACE: intracellular phosphorylation of PKB substrate in HT1080/PTEN cells; format: cell-based; conditions: 1 μM extracellular, UVA 10 s
Description: Previous investigators developed cleavable PTD-cargo conjugates by engineering a disulfide linkage between the two domains (Stein, Weiss et al. 1999; Hallbrink, Floren et al. 2001). […] TAT(49-57)(SEQ ID NO:2) was conjugated via a disulfide bond to cysteines added to substrate peptides for CamKII (F-CamKII-C; SEQ ID NO:13) or PKB (F-PKB-C; SEQ ID NO:14), denoted F-CamKII-C-SS-TAT (SEQ ID NO:15) and F-PKB-C-SS-TAT (SEQ ID NO:16), respectively. The TAT(49-57)-Conjugated substrates were incubated with cells (HT1080 or HT1080/PTEN cells) and the contents of the cells were analyzed by the CACE. […]
CACE has been previously described (Sims, Meredith et al. 1998; Meredith, Sims et al. 2000; Li, Wu et al. 2001). Briefly, cells were placed on an inverted fluorescence microscope stage (Diaphot 300, Nikon, Japan) and maintained at 37° C. with an objective heater (Bioptechs; Butler, Pa.) prior to lysis unless stated otherwise. […] Cells were always maintained in ECB when analyzed by the CACE.
as §2

[3] = In vitro UVA photocleavage of photolabile conjugate, CE quantification; format: physicochemical
Source text: Therefore, we designed a second detachable linker between the TAT(49-57) and the substrate peptide. An Fmoc-aminoethyl photolabile moiety was inserted between the fluorescently-labeled substrate and the TAT(49-57) sequences using standard Fmoc peptide chemistry. The relative order of the different portions of the conjugate was: fluorescein-substrate-PLL-TAT(49-57). Two different substrate peptides were conjugated to TAT(49-57) to form F-PKB-PLL-TAT (SEQ ID NO:18) and F-CamKII-PLL-TAT (SEQ ID NO:19). To determine the time and irradiation intensity needed to photocleave the conjugated peptides, standard solutions (1 nM or 10 μM) of F-PKB-PLL-TAT (SEQ ID NO:18) were illuminated with long-wavelength UV light (UVA) for varying times. The sample was then loaded into a capillary and electrophoresis performed. The concentration of the released substrate peptide was quantified from its fluorescence. At the irradiation intensity used, maximal cleavage of the substrate peptide from the TAT(49-57) sequence was achieved within 20 minutes. […] After a 10 s exposure, 2% of the conjugate was photoreleased. […] The fluorescein was not substantially photobleached by the UVA-induced cleavage since the amount of fluorescent peptide detected after a 4 h irradiation was almost identical to that after 20 min of UVA exposure.
The photolabile TAT(49-57) conjugate (e.g., SEQ ID NOs:18 or 19) (1 nM or 10 μM in ECB) was illuminated with ultraviolet A (UVA; 20 mW/cm^2) using a 365 nm light source (UVP Blak-Ray B100AP; Upland, Calif.). […] for the photolabile group was 365 nm. After photo-release, the fluorescent substrate was resolved by electrophoresis and then quantified by CE. Detection wavelengths were: excitation, 488 nm; emission, 505-565 nm.
A known concentration of the photo-cleavable reporter was placed in an uncapped, shallow vial. The sample was then illuminated with the UV light source for varying times as described above. A small amount of the sample was then removed and the amount of released peptide was quantified using CE. […]

KKALHRQETVDALCRKKRRQRRR [F-CamKII-PLL-TAT]
average concentration of F-CamKII in the cytosol (HT1080 cells; 300 nM extracellular): 180 nM
detectable F-CamKII per cell (HT1080 cells; 300 nM extracellular, n=3): 1.8e-19 ± 1.9e-19 mol
total F-CamKII phosphorylated (CamKII; 300 nM extracellular, ionomycin 500 nM 15 min, n=3): 67±17%

Lys Lys Ala Leu His Arg Gln Glu Thr Val Asp Ala Leu Cys (KKALHRQETVDALC-NH2; not fully specified (N-terminus); printed as Lys Lys Ala Leu His Arg Gln Glu Thr Val Asp Ala Leu Cys; also: fluorescein label, position not given here) [F-CamKII-C, fluorescein-labeled CamKII substrate with added cysteine]
phosphorylation in unstimulated cells (CamKII; HT1080 cells, no constitutive CamKII activity): little to no phosphorylation

KKALHRQETVDALCRKKRRQRRR [F-CamKII-C-SS-TAT]
average number of moles per cell (HT1080 cells; 750 nM extracellular, ionomycin-treated cells): ~2e-20 mol
cytosolic concentration (HT1080 cells; 750 nM extracellular, ionomycin-treated cells, 1 pL cell volume assumed): ~100 nM
F-CamKII-C phosphorylated (mean±SEM) (CamKII; 750 nM extracellular, ionomycin 500 nM 15 min, n=5): 52+3%

Gly Arg Pro Arg Ala Ala Thr Phe Ala Glu Gly (GRPRAATFAEG-NH2; not fully specified (N-terminus); printed as Gly Arg Pro Arg Ala Ala Thr Phe Ala Glu Gly; also: fluorescein label, position not given here) [F-PKB, fluorescein-labeled substrate for protein kinase B]
peptide phosphorylated at steady state (PKB [1]; microinjected): approximately 70%
time to steady state of phosphorylation (PKB [1]; microinjected): less than 2 min

Gly Arg Pro Arg Ala Ala Thr Phe Ala Glu Gly Arg Lys Lys Arg Arg Gln Arg Arg Arg (GRPRAATFAEGRKKRRQRRR-NH2; not fully specified (residue 11, N-terminus); printed as Gly Arg Pro Arg Ala Ala Thr Phe Ala Glu Gly Arg Lys Lys Arg Arg Gln Arg Arg Arg; also: fluorescein, position not given here, photolabile linker, position not given here) [F-PKB-PLL-TAT, fluorescein-PKB substrate-photolabile linker-TAT(49-57)]
cytoplasmic concentration of free F-PKB (HT1080 cells; 1 μM 5 min, 30 min incubation, UVA 10 s): ~200 nM
average quantity of F-PKB detected per cell (HT1080 cells; 1 μM 5 min, 30 min incubation, UVA 10 s, n=15): 2e-19 ± 9e-20 mol
internalization process into the cytosol (HT1080 cells; 1 μM, 37° C.): complete within one hour
total amount of F-PKB detected versus incubation time (HT1080 cells; 1 μM, 37° C., 5 min adsorption, wash, varying incubation, UVA 10 s): increased over the initial hour of incubation and then stabilized
amount of F-PKB measured per cell (HT1080 cells; 1 μM, 4° C.): reduced
amount of F-PKB measured per cell (HT1080 cells; 1 μM, 23° C. and 37° C.): similar
F-PKB present in the phosphorylated form (PKB [1]; 1 μM extracellular, UVA 10 s, n=15): 67±7%
percentage of phosphorylated F-PKB versus incubation time (PKB [1]; 1 μM, 37° C.): did not vary with the incubation time
time scale on which F-PKB is accessible to kinase (PKB [1]; 1 μM, 37° C.): < 30 min
phosphorylation of F-PKB (PKB [1]; 1 μM, 4° C.): Essentially no phosphorylation
percentage of phosphorylated F-PKB (PKB [1]; 1 μM, 23° C. and 37° C.): similar
phosphorylation of released F-PKB (PKB [2]): not seen
conjugate photoreleased ([3]; 10 s UVA exposure): 2%
time to maximal cleavage of substrate peptide from TAT(49-57) ([3]; UVA, 1 nM or 10 μM solution): ≤ 20 min
free substrate peptide ([3]; without UVA illumination): no free substrate peptide could be detected
